Substitutions are numbered along the chain they refer to. Names may count otherwise.

The target in experiment [1] is T1, GAL4 DNA-binding domain only (plasmid pGBT9) (UniProt P04386 1-147).
T1 construct: Negative control of the two-hybrid assay; also called empty pGBT9 vector
Nature of the experiment: yeast two-hybrid, his3 reporter, control with empty pGBT9. The protocol:
The need for this C-terminal domain for the interaction with CDC2At was assayed using the two-hybrid system. A gene encoding a truncated CKS1At protein was created by mutating the Tyr73 codon to a stop codon, thereby deleting the last 15 amino acids. Subsequently, this mutated gene was cloned in frame with the GAL4 activation domain, resulting in the pGADCDSQ plasmid. This vector was introduced into the HF7c yeast reporter strain, together with pGBTCDC2A or the empty pGBT9 vector. […] Therefore, this part of the CKS1At protein might be involved in the interaction with other proteins or may improve the stability of the CDK-CKS1At interaction.

Experiment [2] has as its target T2, GAL4 DNA-binding domain-CDC2aAt fusion protein encoded by pGBTCDC2A (Arabidopsis thaliana, UniProt P04386 1-147; P24100 1-294).
T2 construct: Two-hybrid bait
Nature of the experiment: yeast two-hybrid, his3 reporter, control with GAL4 activation domain only.

In another experiment the target is T3, CDC2aAt protein (Arabidopsis thaliana, UniProt P24100 1-294).
T3 construct: Endogenous protein in extracts of partially synchronized Arabidopsis cell suspensions
T3 sequence (P24100 whole entry): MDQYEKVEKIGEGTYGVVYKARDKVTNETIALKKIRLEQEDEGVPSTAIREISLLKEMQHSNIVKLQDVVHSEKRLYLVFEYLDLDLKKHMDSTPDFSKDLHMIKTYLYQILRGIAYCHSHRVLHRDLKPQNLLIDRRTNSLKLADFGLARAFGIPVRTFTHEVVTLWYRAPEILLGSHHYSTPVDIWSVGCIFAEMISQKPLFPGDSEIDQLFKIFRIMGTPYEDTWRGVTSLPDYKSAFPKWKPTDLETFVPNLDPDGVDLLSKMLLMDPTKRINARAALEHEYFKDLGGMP
Kind of experiment: co-immunoprecipitation with the CKS1At antibody from extracts of G1/S cells, blot probed with the CDC2aAt antibody. The protocol:
Arabidopsis thaliana cell suspensions were partially synchronized by the addition of aphidicolin to freshly diluted cell suspension cells. After 24 hours the drug was washed away and cells were cultivated in new medium. Samples were collected at several time points and partly used for nuclei preparation, partly for protein extraction. […] The CKS1At containing complexes were precipitated with the use of a CKS1At specific antibody (see example 9 of this application). These complexes were resolved on a SDS PAGE gel and immunoblotted. The presence of CDC2aAt as a component of the immuno-precipitated complexes was verified by probing this blot with a CDC2aAt specific antibody. This antibody detected a specific band of the correct molecular size in the extracts of the G1/S cells.

The target in experiment [3] is T4, GAL4 DNA-binding domain-CDC2bAt fusion protein encoded by pGBTCDC2B (Arabidopsis thaliana, UniProt P04386 1-147; P25859 1-309).
T4 construct: Two-hybrid bait
Nature of the experiment: yeast two-hybrid, his3 reporter. The protocol:
The recently published structure of the human CDK2 protein in complex with the human CKS1At homologue CKSHs1 helped to identify the amino-acids in the CKS/SUC1 proteins important for interaction with CDKs. Based upon this information the E61 residue of CKS1At was mutated into Q61 by PCR. The consequences of this mutation upon the binding affinity for CDC2aAt and CDC2bAt were tested with the use of a two-hybrid system utilizing the his3 gene as reporter gene. The coding region of both the wild type CKS1At and the mutated CKS1At.Q61 gene was cloned in frame with the GAL4 activation domain in the pGAD424 vector, resulting in the pGADCKS and pGADCKS.Q61 respectively. These vectors were used to cotransform the HF7c yeast cells with pGBTCDC2A or pGBTCDC2B. The pGBTCDC2A and pGBTCDC2B vectors encode for a fusion protein between the GAL4 DNA-binding domain and CDC2aAt or CDC2bAt respectively. The transformants were plated on selective medium in the absence of histidine to test the interactions between CKS1At and CKS1At.Q61 with CDC2aAt and CDC2bAt. Transformants were also streaked on medium containing 10, 20, 40, 80 or 160 mM 3-amino-1,2,4-triazole (3-AT). 3-AT acts as a competitive inhibitor of the his3 gene product.

B1: GAL4 activation domain fused to truncated CKS1At lacking the last 15 amino acids, encoded by pGADCKSQ (other, not shown: large carriers)
chain: MGQIQYSEKYFDDTFEYRHVVLPPEVAKLLPKNRLLSENEWRAIGVQQSRGWVHYAVHRPEPHIMLFRRPLN
notes: Tyr73 codon mutated to a stop codon, deleting the last 15 amino acids; also called pGADCDSQ; truncated CKS1At protein
Consider B1, for which, in experiment [1], the binding result is listed as “no binding”.

B2: GAL4 activation domain only (vector pGAD424) (other, UniProt P04386 768-881, looked up)
chain: ANFNQSGNIADSSLSFTFTNSSNGPNLITTQTNSQALSQPIASSNVHDNFMNNEITASKIDDGNNSKPLSPGWTDQTAYNAFGITTGMFNTTTMDDVYNYLFDDEDTPPNPKKE
notes: Negative control of the two-hybrid assay
For B2, the binding result in experiment [2] is “no binding”.

B3: CKS1At protein (CDK-associating subunit from Arabidopsis thaliana) (other)
chain: MGQIQYSEKYFDDTFEYRHVVLPPEVAKLLPKNRLLSENEWRAIGVQQSRGWVHYAVHRPEPHIMLFRRPLNYQQQQENQAQNMLVK
notes: also called wild type CKS1At
B3: in the experiment with CDC2aAt protein, the binding result was “binds”.

B4: GAL4 activation domain-CKS1At.Q61 fusion protein encoded by pGADCKS.Q61 (other, not shown: large carriers; small tags and cut ends)
chain: B3 chain with E61Q
notes: Two-hybrid prey with the E61 residue of CKS1At mutated into Q61; also called CKS1At mutant E61Q
On to B4, for which, in experiment [3], the binding result is recorded as “no binding”.

These data come from patent US20070136889A1 (CROPDESIGN N V, published 2007).
